Measurements: paper PMC7643134

Biological target: Hydroxynitrile lyase from Parafontaria laminata millipedes, purified from the millipedes (PlamHNL-N) (Parafontaria laminata)
Test: SEC

stoichiometry N: 2
Substance: Hydroxynitrile lyase from Parafontaria laminata millipedes, purified from the millipedes (PlamHNL-N) (enzyme)
